In patent US20260000736A1, “PURIFIED LACTOFERRIN COMPOSITIONS AND METHODS OF USE” (Lactea Therapeutics LLC, priority 2023, published 2026):

Assays:
[1] = DSC of additional batches, ratio of apo to holo-Lactoferrin; assay type: physicochemical; conditions: 5 mg/mL, 30° C. to 100° C. range
Protocol: Additional batches of Lactea-Lf as described in the above examples and the relative ratio of apo to holo-Lactoferrin was assessed by Differential Scanning Calorimetry (DSC). Lactoferrin samples were loaded at 5 mg/mL into a NanoDSC (TI Instruments) and measured in the 30° C. to 100° C. range. […] It is likely that these peaks are smaller as the sample is highly impure or contains already denatured product.

[2] = assay type: binding; conditions: ITC, Lf 5 mg/mL in 100 mM MOPS buffer pH 7, HS approximately 100 µM
[3] = DSC iron binding capability with excess FeCl3; conditions: FeCl3 added in 1000× molar excess
Protocol: The DSC assay was further used to assess Lactoferrin bioactivity, specifically the iron binding capability of the API-E2 Lactoferrin. Iron chloride (FeCl3) was added in 1000× molar excess to API-E2 Lactoferrin. In the presence of excess iron, the API-E2 lactoferrin will bind the iron to its open iron binding site.

lactoperoxidase (LPO) = assay: Enzymatic colorimetric assay for lactoperoxidase (LPO) activity; assay type: biochemical; conditions: colorimetric peroxidase substrate
Source text: An enzymatic assay for lactoperoxidase (LPO) activity was developed utilizing a molecule which in the presence of peroxidase activity turns a blue color.

Enterobacter cloacae = assay: Biofilm formation, crystal violet assay; assay type: cell-based; conditions: 24 hours of growth
Pseudomonas aeruginosa = assay: Biofilm formation, crystal violet assay; assay type: cell-based; conditions: 24 hours of growth
Candida auris = assay: Biofilm formation, crystal violet assay; assay type: cell-based; conditions: 24 hours of growth
Candida albicans = assay: Biofilm formation, crystal violet assay; assay type: cell-based; conditions: 24 hours of growth
[4] = test system: cow with a large infected chronic wound on its leg; assay: Case study of a cow with a large infected chronic wound; assay type: in vivo; conditions: three daily treatments as freeze dried powder into the wound bed
Protocol: (§1) Lactea Lactoferrin (Lactea-Lf) was produced as described in the above examples and freeze-dried by lyophilization into a powder. Lactea-Lf was then administered as the freeze-dried powder in a variety of animal wound contexts.
For these daily treatments, Lf was applied once on each day to cover the open wound area.

[5] = test system: mice with two 10 mm puncture wounds through the skin; assay: Mouse puncture wound model, survival; assay type: in vivo
Protocol: as §1
In a first assessment in a mouse model setting, mice were anesthetized with isoflurane and two 10 mm puncture wounds were made through the skin of each mouse on the back. Three of the mice were treated with Lf added as a freeze dried powder directly into the wound bed while anesthetized immediately after wounds were made, while the three other mice were left completely untreated. Mice were then transferred to non-sterile housing and observed daily.

SARS-CoV-2 = SARS-CoV-2 Cytopathic Effect (CPE) reduction assay in Vero E6 cells; assay type: cell-based; conditions: Vero E6 cells, MOI of 0.001, neutral red, three days post-infection
E. coli 0157 = assay: Bacterial growth timecourse, OD600; assay type: cell-based; conditions: 1 mg/mL; for Bacterial Growth Timecourse, Replicate 1 / Bacterial Growth Timecourse, Replicate 2 / Bacterial Growth Timecourse, Replicate 3: OD600 relative to no treatment control at 24 hours
Protocol: For a more detailed comparison of Lactea-Lf antimicrobial activity relative to the Sigma Aldrich Lactoferrin, Lactea-Lf and Sigma Aldrich Lactoferrin were incubated at 1 mg/mL with for E. coli 0157 in LB seeded at 10∝CFU/mL. […] Results were quantified and reported as a percent of the OD600 of the no treatment control at 24 hours for all timepoints.

Enterococcus faecalis = assay: Biofilm formation, crystal violet assay; assay type: cell-based; conditions: 24 hours of growth
[6] = test system: Staphylococcus epidermidis; assay: Biofilm formation, crystal violet assay; assay type: cell-based; conditions: 24 hours of growth
Escherichia coli = assay: Biofilm formation, crystal violet assay; assay type: cell-based; conditions: 24 hours of growth
[7] = test system: salivary human bacteria (including Lactobacillus, Lactococcus, Streptococcus mutans, and Porphyromonas gingivalis); assay: Poultry surface treatment, chicken breast inoculated with salivary bacteria; conditions: 3 mg/mL surface treatment, 6 days at 37° C.
Protocol: Chicken breasts were inoculated with salivary human bacteria in a slurry as described above in pH testing (including Lactobacillus, Lactococcus, Streptococcus mutans, and Porphyromonas gingivalis) and left for 6 days at 37° C.

B1: Lactea-Lf: bovine lactoferrin purified from raw untreated milk by cation exchange chromatography and filtration according to Example 1 (protein)
chain: APRKNVRWCTISQPEWFKCRRWQWRMKKLGAPSITCVRRAFALECIRAIAEKKADAVTLDGGMVFEAGRDPYKLRPVAAEIYGTKESPQTHYYAVAVVKKGSNFQLDQLQGRKSCHTGLGRSAGWVIPMGILRPYLSWTESLEPLQGAVAKFFSASCVPCIDRQAYPNLCQLCKGEGENQCACSSREPYFGYSGAFKCLQDGAGDVAFVKETTVFENLPEKADRDQYELLCLNNSRAPVDAFKECHLAQVPSHAVVARSVDGKEDLIWKLLSKAQEKFGKNKSRSFQLFGSPPGQRDLLFKDSALGFLRIPSKVDSALYLGSRYLTTLKNLRETAEEVKARYTRVVWCAVGPEEQKKCQQWSQQSGQNVTCATASTTDDCIVLVLKGEADALNLDGGYIYTAGKCGLVPVLAENRKTSKYSSLDCVLRPTEGYLAVAVVKKANEGLTWNSLKDKKSCHTAVDRTAGWNIPMGLIVNQTGSCAFDEFFSQSCAPGRDPKSRLCALCAGDDQGLDKCVPNSKEKYYGYTGAFRCLAEDVGDVAFVKNDTVWENTNGESTADWAKNLNREDFRLLCLDGTRKPVTEAQSCHLAVAPNHAVVSRSDRAAHVKQVLLHQQALFGKNGKNCPDKFCLFKSETKNLLFNDNTECLAKLGGRPTYEEYLGTEYVTAIANLKKCSTSPLLEACAFLTR
In the case of B1, the “denaturation peak corresponding to apo-Lf” value [1] is reported as ~60 °C, the “denaturation peak corresponding to holo-Lf” value [1] is reported as 90 °C and the “relative ratio of apo to holo-Lactoferrin, DSC peak pattern” value [1] is reported as “heavily skewed towards apo-Lf”. For the same molecule, the “binding to Heparan Sulfate” value [2] was “far greater binding to Heparan Sulfate than the research standard”, the “available Apolactoferrin shifted to the Hololactoferrin form” value [3] was 100% and the “LPO enzymatic activity (blue color reaction)” value (lactoperoxidase (LPO)) was “neither detected by M/S or by the enzymatic assay”. For the same molecule, the “Inhibition of Biofilm Formation” value (Enterobacter cloacae) was “Strong (Lf was deemed to have a strong activity if biofilms were eliminated or significantly reduced to less than 90% less than no treatment at concentrations of 10 mg/mL or less after 24 hours of growth)”, the “Inhibition of Biofilm Formation” value (Pseudomonas aeruginosa) was “Strong (Lf was deemed to have a strong activity if biofilms were eliminated or significantly reduced to less than 90% less than no treatment at concentrations of 10 mg/mL or less after 24 hours of growth)” and the “Inhibition of Biofilm Formation” value (Candida auris) was “Strong (Lf was deemed to have a strong activity if biofilms were eliminated or significantly reduced to less than 90% less than no treatment at concentrations of 10 mg/mL or less after 24 hours of growth)”. For the same molecule, the “Inhibition of Biofilm Formation” value (Candida albicans) was “Strong (Lf was deemed to have a strong activity if biofilms were eliminated or significantly reduced to less than 90% less than no treatment at concentrations of 10 mg/mL or less after 24 hours of growth)”, the “healing of infected chronic wound” value [4] was “the wound was completely healed after it was checked after three weeks” and the “survival of mice following wounding” value ([5]; freeze dried powder directly into the wound bed, non-sterile housing, study to day 28, all three untreated mice died by day 12) was “only one mouse died at day 14 and the other two survived to the conclusion of the study at day 28”. The “toxicity of powder administered to wounds” value ([5]; mice, freeze-dried powder of pure Lf administered to the wounds) was “no toxicity was observed”, the EC50 (SARS-CoV-2) was 90 nM and the “inhibition of bacterial growth over time” value (E. coli 0157; E. coli 0157 in LB) was “near complete inhibition of bacterial growth up to 18 hours”. For the same molecule, the “time at which bacterial growth became observable / evident” value (E. coli 0157; E. coli 0157 in LB) was 21 h, the “Bacterial Growth Timecourse, Replicate 1” value (E. coli 0157; 3 h) was −0.00372 and the “Bacterial Growth Timecourse, Replicate 2” value (E. coli 0157; 3 h) was −0.00129. For the same molecule, the “Bacterial Growth Timecourse, Replicate 3” value (E. coli 0157; 3 h) was 0.02246, the “Bacterial Growth Timecourse, Replicate 1” value (E. coli 0157; 6 h) was 0.007916 and the “Bacterial Growth Timecourse, Replicate 2” value (E. coli 0157; 6 h) was 0.01196. For the same molecule, the “Bacterial Growth Timecourse, Replicate 3” value (E. coli 0157; 6 h) was 0.03279, the “Bacterial Growth Timecourse, Replicate 1” value (E. coli 0157; 9 h) was 0.01583 and the “Bacterial Growth Timecourse, Replicate 2” value (E. coli 0157; 9 h) was 0.02246. The “Bacterial Growth Timecourse, Replicate 3” value (E. coli 0157; 9 h) was 0.02019, the “Bacterial Growth Timecourse, Replicate 1” value (E. coli 0157; 12 h) was 0.04443 and the “Bacterial Growth Timecourse, Replicate 2” value (E. coli 0157; 12 h) was 0.04136. The “Bacterial Growth Timecourse, Replicate 3” value (E. coli 0157; 12 h) was 0.02633, the “Bacterial Growth Timecourse, Replicate 1” value (E. coli 0157; 15 h) was 0.04976 and the “Bacterial Growth Timecourse, Replicate 2” value (E. coli 0157; 15 h) was 0.05816. For the same molecule, the “Bacterial Growth Timecourse, Replicate 3” value (E. coli 0157; 15 h) was 0.04685, the “Bacterial Growth Timecourse, Replicate 1” value (E. coli 0157; 18 h) was 0.04152 and the “Bacterial Growth Timecourse, Replicate 2” value (E. coli 0157; 18 h) was 0.0399. For the same molecule, the “Bacterial Growth Timecourse, Replicate 3” value (E. coli 0157; 18 h) was 0.04281, the “Bacterial Growth Timecourse, Replicate 1” value (E. coli 0157; 21 h) was 0.1997 and the “Bacterial Growth Timecourse, Replicate 2” value (E. coli 0157; 21 h) was 0.1696. For the same molecule, the “Bacterial Growth Timecourse, Replicate 3” value (E. coli 0157; 21 h) was 0.106, the “Bacterial Growth Timecourse, Replicate 1” value (E. coli 0157; 24 h) was 0.3648 and the “Bacterial Growth Timecourse, Replicate 2” value (E. coli 0157; 24 h) was 0.2898. The “Bacterial Growth Timecourse, Replicate 3” value (E. coli 0157; 24 h) was 0.2034, the “Inhibition of Biofilm Formation” value (Enterococcus faecalis) was “Strong (Lf was deemed to have a strong activity if biofilms were eliminated or significantly reduced to less than 90% less than no treatment at concentrations of 10 mg/mL or less after 24 hours of growth)” and the “Inhibition of Biofilm Formation” value [6] was “Strong (Lf was deemed to have a strong activity if biofilms were eliminated or significantly reduced to less than 90% less than no treatment at concentrations of 10 mg/mL or less after 24 hours of growth)”. For the same molecule, the “Inhibition of Biofilm Formation” value (Escherichia coli) was “Strong (Lf was deemed to have a strong activity if biofilms were eliminated or significantly reduced to less than 90% less than no treatment at concentrations of 10 mg/mL or less after 24 hours of growth)” and the “bacterial growth on chicken breast” value [7] was “no detectable growth of any bacteria colonies”.
